The labels stand for the following.
B1: P1AE0289, CEA (A5B7) Fab (parental murine antibody) (Fab, V domains shown)
VH: EVKLVESGGGLVQPGGSLRLSCATSGFTFTDYYMNWVRQPPGKALEWLGFIGNKANGYTTEYSASVKGRFTISRDKSQSILYLQMNTLRAEDSATYYCTRDRGLRFYFDYWGQGTTLTVSS
VL: QTVLSQSPAILSASPGEKVTMTCRASSSVTYIHWYQQKPGSSPKSWIYATSNLASGVPARFSGSGSGTSYSLTISRVEAEDAATYYCQHWSSKPPTFGGGTKLEIK
B2: P1AE4135, Fab derived from P1AE2164 (Fab, V domains shown)
VH: EVQLLESGGGLVQPGGSLRLSCAASGFTFTDYYMNWVRQAPGKGLEWLGFIGNKANGYTTEYSASVKGRFTISRDKSKNTLYLQMNSLRAEDTATYYCTRDRGLRFYFDYWGQGTTVTVSS
VL: QTVLTQSPATLSLSPGERATLSCRASSSVTYIHWYQQKPGSSPKSWIYATSNLASGIPARFSGSGSGTDYTLTISSLEPEDFAVYYCQHWSSKPPTFGQGTKLEIK
B3: P1AE4137, Fab derived from P1AE2166 (Fab, V domains shown)
VH: B2 VH
VL: B2 VL with Q1E, T2I, Y70F
B4: P1AE4143, Fab derived from P1AE2182 (Fab, V domains shown)
VH: B2 VH with L48V, T95V, T99A
VL: B2 VL with Q1E, T2I, S41Q, S42A, K44R, Y70F
B5: P1AE4136, Fab derived from P1AE2165 (Fab, V domains shown)
VH: B2 VH
VL: B2 VL with S41Q, S42A, K44R, S45L, W46L, Y70F
B6: P1AE4140, Fab derived from P1AE2177 (Fab, V domains shown)
VH: B2 VH with L48V, K76N, T95V
VL: B2 VL with Q1E, T2I, S41Q, S42A, K44R, Y70F
B7: P1AE4138, Fab derived from P1AE2167 (Fab, V domains shown)
VH: B2 VH
VL: B2 VL with Q1E, T2I, S41Q, S42A, K44R, Y70F
B8: P1AE4139, Fab derived from P1AE2176 (Fab, V domains shown)
VH: B2 VH with L48V, K76N, T95V
VL: B2 VL with Q1E, T2I, Y70F
B9: P1AE4141, Fab derived from P1AE2179 (Fab, V domains shown)
VH: B2 VH with L48V, T95V, T99A
VL: B2 VL
B10: P1AE4142, Fab derived from P1AE2181 (Fab, V domains shown)
VH: B2 VH with L48V, T95V, T99A
VL: B2 VL with Q1E, T2I, Y70F

Positions count from the first letter of the chain named.

The experiment deals with human CEA (hu N(A2-B2)A-avi-His B) (human). Nature of the experiment: SPR (Biacore T200), hu N(A2-B2)A-avi-His B immobilised, Fab as analyte, 1:1 Langmuir fit. (In general: Surface plasmon resonance follows binding to a sensor surface in real time, without labels.)
Sequence of human CEA (hu N(A2-B2)A-avi-His B) (human) (P06731 whole entry): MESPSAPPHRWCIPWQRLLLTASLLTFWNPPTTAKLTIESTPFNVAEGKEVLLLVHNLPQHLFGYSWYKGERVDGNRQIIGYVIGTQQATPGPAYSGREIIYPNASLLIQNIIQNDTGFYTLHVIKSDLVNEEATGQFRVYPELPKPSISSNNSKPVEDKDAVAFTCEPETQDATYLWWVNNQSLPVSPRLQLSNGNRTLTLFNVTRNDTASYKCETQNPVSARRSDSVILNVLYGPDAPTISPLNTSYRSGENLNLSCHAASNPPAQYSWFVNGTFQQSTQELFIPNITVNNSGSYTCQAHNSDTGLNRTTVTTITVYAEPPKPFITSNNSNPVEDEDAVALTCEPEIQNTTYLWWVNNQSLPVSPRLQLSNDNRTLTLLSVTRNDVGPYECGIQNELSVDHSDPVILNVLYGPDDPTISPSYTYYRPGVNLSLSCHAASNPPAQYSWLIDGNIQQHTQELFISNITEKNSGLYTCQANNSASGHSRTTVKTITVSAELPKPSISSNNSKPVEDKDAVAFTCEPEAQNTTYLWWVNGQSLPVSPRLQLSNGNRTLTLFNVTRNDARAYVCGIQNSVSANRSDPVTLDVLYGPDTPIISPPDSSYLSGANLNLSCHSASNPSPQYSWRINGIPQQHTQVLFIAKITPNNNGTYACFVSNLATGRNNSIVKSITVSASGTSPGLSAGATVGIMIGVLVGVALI
What is called Kd is the free concentration of one partner at which half of the binding sites on the other are occupied at equilibrium, for simple one-to-one binding. B1 returned a dissociation constant (Kd) of 0.559 nM.

Consider B2, for which the Kd was found to be 1.7 nM. This Kd is about 3-fold higher than that of the molecule before.

Regarding B3, the Kd was determined as 11.3 nM.

For the molecule B4, the Kd was 2.92 nM. This Kd is about 3.9-fold lower than that of the molecule before.

For the molecule B5, the Kd turned out to be 1.25 nM.

As to B6, the Kd amounted to 7.62 nM.

Turning to B7, the dissociation constant (Kd) is 1.47 nM. Against the preceding molecule, the Kd is about 5.2-fold lower.

Consider B8, for which the dissociation constant Kd is 7.58 nM.

B9: the Kd amounted to 1.83 nM.

In the case of B10, the Kd turned out to be 2.64 nM.

(Values after patent US20220098305A1.)
